{"source": "patent US20200071417A1", "about": "(MARENGO THERAPEUTICS, published 2020)", "binders": {"B1": {"name": "UniTI-01 (multispecific molecule #1), anti-CCR2/anti-CSF1R bispecific antibody (bispecific antibody)", "heavy 1": "QVQLQESGPGLVQPSQTLSLTCTVSGFSLTDFSVHWVRQPPGKGLEWMGRIRSEGNTDYNSALKSRLSISRDTSKSQVFLKMNSLQTEDTAIYFCTRGDILGFGYWGQGVMVTVSSAQTTAPSVYPLAPGCGDTTSSTVTLGCLVKGYFPEPVTVTWNSGALSSDVHTFPAVLQSGLYTLTSSVTSSTWPSQTVTCNVAHPASSTKVDKKVERRTIKPCPPCKCPAPNLLGGPSVFIFPPKIKDVLMISLSPIVTCVVVDVSEDDPDVQISWFVNNVEVHTAQTQTHREDYNSTLRVVSALPIQHQDWMSGKEFKCKVNNKDLPAPIERTISKPKGSVRAPQVYVLPPCEEEMTKKQVTLWCMVTDFMPEDIYVEWTNNGKTELNYKNTEPVLDSDGSYFMYSKLRVEKKNWVERNSYSCSVVHEGLHNHHTTKSFSRTPGK", "light 1": "DIVMTQSPLSVSVTPGESASISCRSSKSLLHFKGITFVYWYLQKPGQSPQLLIFRMSSLASGVPDRFSGSGSETDFTLKISRVEAEDVGTYYCGQLLENPYTFGAGTKLELKRADAAPTVSIFPPSMEQLTSGGATVVCFVNNFYPRDISVKWKIDGSEQRDGVLDSVTDQDSKDSTYSMSSTLSLTKVEYERHNLYTCEVVHKTSSSPVVKSFNRNEC", "heavy 2": "QVQLQQSGAELVKPGSSVKISCKASGYTFTSNFMHWIKQQPGNGLEWIGWIYPGDGDTEYNQKFNGKATLTADKSSSTAYMQLSSLTSEDSAVYFCAVNYGGYVLDAWGQGASVTVSSAETTAPSVYPLAPGTALKSNSMVTLGCLVKGYFPEPVTVTWNSGALSSGVHTFPAVLQSGLYTLTSSVTVPSSTWSSQAVTCNVAHPASSTKVDKKIVPRECNTIKPCPPCKCPAPNLLGGPSVFIFPPKIKDVLMISLSPIVTCVVVDVSEDDPDVQISWFVNNVEVHTAQTQTHREDYNSTLRVVSALPIQHQDWMSGKEFKCKVNNKDLPAPIERTISKPKGSVRAPQVCVLPPPEEEMTKKQVTLSCAVTDFMPEDIYVEWTNNGKTELNYKNTEPVLDSDGSYFMVSKLRVEKKNWVERNSYSCSVVHEGLHNHHTTKSFSRTPGK", "light 2": "EIVLTQSPTTMAASPGEKVTITCRASSSTNYMSWYQQKSGASPKPWIYETSKLASGVPDRFSGSGSGTSYSFTISSMETEDAATYYCHQWSSTPLTFGSGTKLEIKRADAAPTVSIFPPSMEQLTSGGATVVCFVNNFYPRDISVKWKIDGSEQRDGVLDSVTDQDSKDSTYSMSSTLSLTKVEYERHNLYTCEVVHKTSSSPVVKSFNRNEC", "notes": "Knob-in-hole heterodimer with one anti-CCR2 arm and one anti-mCSF1R arm"}}, "key": {"mouse CCR2": {"target": "T1, mouse CCR2 (mouse, UniProt P51683 1-373)", "T1 construct": "whole, on cells; the mouse protein was used in the assays; also called mCCR2", "T1 sequence (P51683 whole entry)": "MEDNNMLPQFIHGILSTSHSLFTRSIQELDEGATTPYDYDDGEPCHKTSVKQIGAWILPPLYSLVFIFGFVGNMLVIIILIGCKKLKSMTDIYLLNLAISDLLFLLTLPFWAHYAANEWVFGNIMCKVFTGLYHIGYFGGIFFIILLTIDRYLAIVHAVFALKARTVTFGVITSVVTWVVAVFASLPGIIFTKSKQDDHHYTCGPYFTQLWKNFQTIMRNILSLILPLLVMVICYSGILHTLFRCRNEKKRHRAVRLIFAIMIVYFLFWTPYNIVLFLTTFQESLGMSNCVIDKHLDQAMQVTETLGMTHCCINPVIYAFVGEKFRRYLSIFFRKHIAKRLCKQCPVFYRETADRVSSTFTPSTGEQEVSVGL", "assay": "flow cytometry on transiently transfected ExpiCHO cells expressing mouse CCR2 only", "method": "(§1) ExpiCHO cells were transiently transfected with mouse CCR2, mouse CSF1R, or both mouse CCR2 and CSF1R, according to the manufacturer's instructions. In brief, the transfections were performed with ExpiCHO cells at a cell density of 5.6-6.3×10⁶ cells/mL and at least 95% viability. For each transfection, 25 μg of DNA was diluted with 1 mL of OptiPro SFM (Gibco 12309050) and filtered using spin-X centrifuge tube filters (Corning 8160). A solution of 920 μL of OptiPro and 80 μL of expifectamine was added to the filtered DNA, incubated for 1 minute at room temperature, and then added to the cells. On day 1 of the transfection, the cells were enhanced using 150 μL of ExpiCHO enhancer.\n(§2) On day 2 of the transfection, the cells were washed with PBS containing 1% BSA (Sigma) and used to set 96-well V-bottom plates (Biotix AP-0350-9CVS) with 100,000 cells/well. UniTI-01 was added to the cells in serial dilutions and incubated for 1 hour at 4° C. The plates were washed twice with PBS containing 1% BSA. […] The plates were read on a CytoFLEX S (Beckman Coulter). Data were calculated as the median fluorescence intensity of the PE-positive population vs. the median fluorescence intensity of the PE-negative population. The data was normalized for the percent of total median fluorescence intensity. […]"}, "mouse CSF1R": {"target": "T2, mouse CSF1R (mouse, UniProt P09581 20-977)", "T2 construct": "whole, on cells; the mouse protein was used in the assays; also called mCSF1R", "T2 sequence (looked up)": "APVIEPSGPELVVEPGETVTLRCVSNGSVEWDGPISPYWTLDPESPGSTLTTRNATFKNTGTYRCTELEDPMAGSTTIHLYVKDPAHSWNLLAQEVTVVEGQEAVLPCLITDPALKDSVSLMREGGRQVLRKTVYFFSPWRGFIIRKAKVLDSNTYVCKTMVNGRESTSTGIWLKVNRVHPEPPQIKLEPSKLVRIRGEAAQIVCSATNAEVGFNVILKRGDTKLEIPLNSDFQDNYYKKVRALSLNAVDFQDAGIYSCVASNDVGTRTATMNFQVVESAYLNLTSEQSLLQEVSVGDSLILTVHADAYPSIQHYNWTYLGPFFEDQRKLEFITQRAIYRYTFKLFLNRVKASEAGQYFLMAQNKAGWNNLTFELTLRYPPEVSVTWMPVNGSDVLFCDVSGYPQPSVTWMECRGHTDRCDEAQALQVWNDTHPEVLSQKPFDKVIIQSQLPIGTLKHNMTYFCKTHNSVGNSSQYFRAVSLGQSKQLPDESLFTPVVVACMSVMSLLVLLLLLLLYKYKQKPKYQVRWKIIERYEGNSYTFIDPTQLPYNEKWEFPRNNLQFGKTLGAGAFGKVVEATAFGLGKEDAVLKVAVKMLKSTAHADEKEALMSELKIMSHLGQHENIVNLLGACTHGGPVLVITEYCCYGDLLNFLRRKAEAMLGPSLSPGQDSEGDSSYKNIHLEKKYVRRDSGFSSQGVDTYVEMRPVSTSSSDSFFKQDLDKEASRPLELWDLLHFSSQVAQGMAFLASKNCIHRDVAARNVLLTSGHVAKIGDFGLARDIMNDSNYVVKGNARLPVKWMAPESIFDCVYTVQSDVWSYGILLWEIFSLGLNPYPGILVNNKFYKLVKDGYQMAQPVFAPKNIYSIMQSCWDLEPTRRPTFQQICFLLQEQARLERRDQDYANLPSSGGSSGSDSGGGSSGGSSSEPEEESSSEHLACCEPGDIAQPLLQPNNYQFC", "assay": "flow cytometry on transiently transfected ExpiCHO cells expressing mouse CSF1R only", "method": "as §1, §2"}, "[1]": {"target": "T3, mouse CCR2 and mouse CSF1R co-expressed on the same ExpiCHO cells (mouse, UniProt P51683 1-373; P09581 20-977)", "T3 construct": "whole, on cells; also called both mCCR2 and mCSF1R; CCR2 and CSF1R double positive cells", "T3 sequence (P51683 whole entry, one chain of several)": "as the sequence (P51683 whole entry) above", "assay": "flow cytometry on transiently transfected ExpiCHO cells expressing both mouse CCR2 and mouse CSF1R", "method": "as §1, §2"}}}
{"binder": "B1", "values": [{"measurement": "EC50", "setting": "mouse CCR2", "value": 15, "unit": "nM"}, {"measurement": "EC50", "setting": "mouse CSF1R", "value": 1, "unit": "nM"}, {"measurement": "EC50", "setting": "[1]", "value": 0.4, "unit": "nM"}]}
